Blank lines part the entries; values can stand above or below the molecule they belong to. * marks the point of attachment. Palmitoyl = CCCCCCCCCCCCCCCC(=O)*
Columns and labels:
[1] = target: T1, rat thoracic aorta rings (Rattus norvegicus, UniProt P49684); assay: Rat aortic ring contraction (agonist); settings: mean ± SEM
T1 sequence (P49684 1-386): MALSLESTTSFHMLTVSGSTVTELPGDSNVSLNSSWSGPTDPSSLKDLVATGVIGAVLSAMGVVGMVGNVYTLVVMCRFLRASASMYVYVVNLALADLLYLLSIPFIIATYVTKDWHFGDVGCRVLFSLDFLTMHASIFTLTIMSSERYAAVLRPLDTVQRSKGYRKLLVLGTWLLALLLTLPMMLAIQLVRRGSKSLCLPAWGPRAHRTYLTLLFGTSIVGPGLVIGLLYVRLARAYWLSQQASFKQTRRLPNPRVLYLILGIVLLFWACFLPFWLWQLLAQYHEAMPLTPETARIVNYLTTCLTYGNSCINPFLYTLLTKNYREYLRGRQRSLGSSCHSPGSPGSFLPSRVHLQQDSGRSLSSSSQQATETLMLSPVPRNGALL
Method: (§1) Each replicate (n) was conducted on tissue obtained from at least three different animals. Data represent mean ± SEM.
(§2) Adult male Sprague-Dawley rats (Charles-River) weighing 250–300 g were housed in cages under controlled illumination (12:12 h light–dark cycle), humidity, and temperature (21–23 °C) and had free access to tap water and rat chow. All experimental procedures were performed in accordance with regulations and ethical guidelines from the Canadian Council for the Care of Laboratory Animals and received approvals of the institutional animal care and use committee of the Institut National de la Recherche Scientifique—Centre Armand-Frappier Santé Biotechnologie. As previously described ([17], [18]), the thoracic aorta was cleared of surrounding tissue and then excised from the aortic arch to the diaphragm. Conjunctive tissues were next removed from the thoracic aorta and the vessels were divided into five rings of 4 mm. The endothelium of each aortic ring was removed by gently rubbing the vessel intimal surface. Aortic rings were then placed in a 5 ml organ bath filled with oxygenated normal Krebs–Henseleit buffer. Eighty microliters of a 2.5 M potassium chloride solution (40 mM final concentration) was used to evaluate maximal contractile responses of each vessel. […] Cumulative concentration–response curves to synthetic peptides were obtained by increasing the concentration of each peptide in the remaining organ chambers (10^−11–10^−5 M).

[2] = target: T1, rat thoracic aorta rings; assay: Modulation of URP-mediated rat aortic ring contraction; settings: URP alone, percentage of KCl (40 mM) contraction divided by tissue response to URP (10^−6 M), mean ± SEM, n = 22, read-out: URP-mediated contraction Emax, control (no pretreatment)
Method: as §1, §2

[3] = target: T2, human urotensin II receptor, on CHO-K1 cells stably expressing it (human) (UniProt Q9UKP6)
T2 sequence: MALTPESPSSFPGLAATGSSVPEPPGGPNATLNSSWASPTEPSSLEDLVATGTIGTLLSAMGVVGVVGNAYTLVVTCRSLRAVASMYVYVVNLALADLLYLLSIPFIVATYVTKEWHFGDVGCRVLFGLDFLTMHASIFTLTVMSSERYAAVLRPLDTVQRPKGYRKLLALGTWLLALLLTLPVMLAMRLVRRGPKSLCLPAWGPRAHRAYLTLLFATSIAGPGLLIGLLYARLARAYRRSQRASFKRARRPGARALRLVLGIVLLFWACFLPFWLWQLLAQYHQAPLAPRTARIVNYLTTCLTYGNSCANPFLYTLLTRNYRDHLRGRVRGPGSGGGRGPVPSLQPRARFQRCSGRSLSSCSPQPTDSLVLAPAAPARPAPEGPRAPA

[4] = target: T3, human urotensin II receptor, on HEK 293 cells stably expressing it (human) (UniProt Q9UKP6)
T3 sequence: T2 sequence

[5] = target: T2, human urotensin II receptor, on CHO-K1 cells stably expressing it (human); remark: listed apart in the source
[6] = scale: % of the activation induced by hUII

contraction pEC50 ([1]; n = 22 (hUII, URP), n = 5 (pepducins)): 8.10 ± 0.06
Emax ([1]; percentage of contraction induced by 40 mM KCl, n = 22): 108 ± 3%
Emax [2]: 105 ± 3%
Molecule: CC(C)[C@H](NC(=O)[C@@H]1CSSC[C@H](NC(=O)[C@H](C)N)C(=O)N[C@@H](Cc2ccccc2)C(=O)N[C@@H](Cc2c[nH]c3ccccc23)C(=O)N[C@@H](CCCCN)C(=O)N[C@@H](Cc2ccc(O)cc2)C(=O)N1)C(=O)O [URP, urotensin II-related peptide, reference compound]

ERK1/2 phosphorylation (western blot), CHO-hUT cells, 5 min; Emax (% of the hUII maximum effect) [3]: 56
ERK1/2 phosphorylation (western blot), CHO-hUT cells, 5 min; pEC50 [3]: 6.7 -log EC50
G13 activation (BRET biosensor), HEK 293-hUT cells; pEC50 [4]: 6.51 -log EC50
Gi activation (BRET biosensor), HEK 293-hUT cells; pEC50 [4]: 10.4 -log EC50
Gq activation (BRET biosensor), HEK 293-hUT cells; pEC50 [4]: 8.34 -log EC50
β-arrestin 1 conformational change (BRET biosensor), HEK 293-hUT cells; pEC50 [4]: 8.08 -log EC50
β-arrestin 2 conformational change (BRET biosensor), HEK 293-hUT cells; pEC50 [4]: 7.74 -log EC50
G12 activation (BRET biosensor), HEK 293-hUT cells; maximum efficacy at 10^-6 M [4, 6]: 5
G13 activation (BRET biosensor), HEK 293-hUT cells; Emax [4, 6]: 185
Gi activation (BRET biosensor), HEK 293-hUT cells; Emax [4, 6]: 97
Gq activation (BRET biosensor), HEK 293-hUT cells; Emax [4, 6]: 29
β-arrestin 1 conformational change (BRET biosensor), HEK 293-hUT cells; Emax [4, 6]: 18
β-arrestin 2 conformational change (BRET biosensor), HEK 293-hUT cells; Emax [4, 6]: 19
IP1 production (IP-One terbium immunoassay), CHO-hUT cells, 40 min; efficacy at 10^-5 M (% of the hUII maximum effect) [5]: 60
IP1 production (IP-One terbium immunoassay), CHO-hUT cells, 40 min; pEC50 [5]: < 6 -log EC50
B1: [Trp^1, Leu^2]hUT-Pep3 (peptide)
peptide: Palmitoyl-WLSQRASFKRARR-NH2
SMILES: CCCCCCCCCCCCCCCC(=O)N[C@@H](Cc1c[nH]c2ccccc12)C(=O)N[C@@H](CC(C)C)C(=O)N[C@@H](CO)C(=O)N[C@@H](CCC(N)=O)C(=O)N[C@@H](CCCNC(=N)N)C(=O)N[C@@H](C)C(=O)N[C@@H](CO)C(=O)N[C@@H](Cc1ccccc1)C(=O)N[C@@H](CCCCN)C(=O)N[C@@H](CCCNC(=N)N)C(=O)N[C@@H](C)C(=O)N[C@@H](CCCNC(=N)N)C(=O)N[C@@H](CCCNC(=N)N)C(N)=O

ERK1/2 phosphorylation (western blot), CHO-hUT cells, 5 min; Emax (% of the hUII maximum effect) [3]: 34
ERK1/2 phosphorylation (western blot), CHO-hUT cells, 5 min; pEC50 [3]: 7.26 -log EC50
G13 activation (BRET biosensor), HEK 293-hUT cells; pEC50 [4]: 6.33 -log EC50
Gi activation (BRET biosensor), HEK 293-hUT cells; pEC50 [4]: 10.1 -log EC50
Gq activation (BRET biosensor), HEK 293-hUT cells; pEC50 [4]: 7.31 -log EC50
G13 activation (BRET biosensor), HEK 293-hUT cells; Emax [4, 6]: 154
Gi activation (BRET biosensor), HEK 293-hUT cells; Emax [4, 6]: 96
Gq activation (BRET biosensor), HEK 293-hUT cells; Emax [4, 6]: 9
β-arrestin 2 conformational change (BRET biosensor), HEK 293-hUT cells; maximum efficacy at 10^-6 M [4, 6]: 15
IP1 production (IP-One terbium immunoassay), CHO-hUT cells, 40 min; efficacy at 10^-5 M (% of the hUII maximum effect) [5]: 35
IP1 production (IP-One terbium immunoassay), CHO-hUT cells, 40 min; pEC50 [5]: < 6 -log EC50
B2: hUT-Pep2 (peptide)
peptide: Palmitoyl-RPLDTVQRPKGY-NH2
SMILES: CCCCCCCCCCCCCCCC(=O)N[C@@H](CCCNC(=N)N)C(=O)N1CCC[C@H]1C(=O)N[C@@H](CC(C)C)C(=O)N[C@@H](CC(=O)O)C(=O)N[C@H](C(=O)N[C@H](C(=O)N[C@@H](CCC(N)=O)C(=O)N[C@@H](CCCNC(=N)N)C(=O)N1CCC[C@H]1C(=O)N[C@@H](CCCCN)C(=O)NCC(=O)N[C@@H](Cc1ccc(O)cc1)C(N)=O)C(C)C)[C@@H](C)O
